Measurements from patent publication US20230374147A1.

Biological target: BCMA:APRIL 1:1 (human) (UniProt Q02223)
Test: BLI, His-tagged human BCMA on tip, then human APRIL 3000 nM, then IgG; KD cell N/A, R2 0.0887

Chain of BCMA:APRIL 1:1 (human) (Q02223 1-54 limits assumed, chain 1 of 2): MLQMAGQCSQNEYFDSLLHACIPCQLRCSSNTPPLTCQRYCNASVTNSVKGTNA
Chain of BCMA:APRIL 1:1 (human) (O75888 115-250 limits assumed, chain 2 of 2, further chain): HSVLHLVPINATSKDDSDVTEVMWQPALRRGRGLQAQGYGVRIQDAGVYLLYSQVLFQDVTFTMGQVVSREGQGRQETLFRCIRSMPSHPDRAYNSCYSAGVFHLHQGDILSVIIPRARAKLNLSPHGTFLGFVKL

In the case of J6M0 (antibody), the BCMA:APRIL 1:1 response is reported as 0.18.
